The supplement of paper PMC12667976
± gives the standard error.

B1: library; numbered along this chain (parent)
chain: MATDAALRRLLRLHRTEIAVAVDSAFPLLHALADHDVVPEDKFQETLHLKEKEGCPQAFHALLSWLLTQDSTAILDFWRVLFKDYNLERYGRLQPILDSFPKDVDLSQPRKGRKPPAVPKALVPPPRLPTKRKASEEARAAAPAALTPRGTASPGSQLKAKPPKKPESSAEQQRLPLGNGIQTMSASVQRAVAMSSGDVPGARGAVEGILIQQVFESGGSKKCIQVGGEFYTPSKFEDSGSGKNKARSSSGPKPLVRAKGAQGAAPGGGEARLGQQGSVPAPLALPSDPQLHQKNEDECAVCRDGGELICCDGCPRAFHLACLSPPLREIPSGTWRCSSCLQATVQEVQPRAEEPRPQEPPVETPLPPGLRSAGEEVRGPPGEPLAGMDTTLVYKHLPAPPSAAPLPGLDSSALHPLLCVGPEGQQNLAPGARCGVCGDGTDVLRCTHCAAAFHWRCHFPAGTSRPGTGLRCRSCSGDVTPAPVEGVLAPSPARLAPGPAKDDTASHEPALHRDDLESLLSEHTFDGILQWAIQSMARPAAPFPS

Variants of: B1
Experiment: AIRE transcriptional activation functional score (insulin promoter-GFP; nonsense median 0, synonymous median 1) (normalised score); higher = higher AIRE activity (more reporter activation)
Conditions: with insulin promoter-GFP reporter in HEK293
Protocol: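 Deep mutational scan of full-length human AIRE (codon-optimized cDNA, DT-POPCode NNN libraries over three regions) integrated at a Bxb1 landing pad in HEK293 cells carrying an insulin core promoter-GFP reporter at a Flp-In site. Cells were sorted for the top 10% GFP about 14 days after transfection. Variant frequency log-ratios (select vs non-select, TileSeq) were rescaled so that the nonsense median is 0 and the synonymous median is 1, then averaged over biological replicates.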

| Variant | AIRE transcriptional activation functional score |
| --- | --- |
| M194C | 0.639 ± 0.12 |
| S339V | 0.99 ± 0.15 |
| S372I | 0.653 ± 0.77 |
| S135Y | 0.884 ± 0.32 |
| S135K | 1.43 ± 0.35 |
| G374T | 0.972 ± 0.39 |
| A284H | 0.932 ± 0.3 |
| G313R | 0.762 ± 0.31 |
| G313K | 0.717 ± 0.071 |
| P109Y | 0.732 ± 0.35 |
| P109R | 0.676 ± 0.53 |
| G435N | 0.945 ± 0.14 |
| D98R | 0.621 ± 0.47 |
| Q172E | 0.286 ± 0.3 |
| Q172G | 0.609 ± 0.35 |
| D410V | 0.998 ± 0.28 |
| A186P | 0.846 ± 0.17 |
| A186G | 0.548 ± 0.27 |
| A21I | -0.0753 ± 0.15 |
| A21E | 0.657 ± 0.37 |
| Q346W | 1.73 ± 0.09 |
| Q346R | 1.03 ± 0.2 |
| R12A | -0.914 ± 0.56 |
| P368T | 0.983 ± 0.41 |

| Variant | AIRE transcriptional activation functional score |
| --- | --- |
| D439E | 0.881 ± 0.2 |
| K50S | 2.07 ± 0.82 |
| K50G | 1.42 ± 0.11 |
| D312F | 0.823 ± 0.11 |
| R132T | -0.125 ± 0.69 |
| L122Q | 0.272 ± 0.36 |
| A399N | 0.798 ± 0.13 |
| A399V | 0.911 ± 0.24 |
| V20E | -1.26 ± 0.12 |
| V20P | 0.184 ± 0.63 |
| A25K | 0.411 ± 0.087 |
| R247E | 1.52 ± 0.14 |
| R203P | 1.03 ± 0.2 |
| T183W | 0.659 ± 0.14 |
| A429T | 1.12 ± 0.17 |
| L417S | 0.626 ± 0.26 |
| L417V | 0.708 ± 0.25 |
| G180W | -0.0444 ± 0.1 |
| D389I | -0.197 ± 0.2 |
| S71Q | 2.02 ± 0.16 |
| S248G | 1.13 ± 0.26 |
| E136D | 0.541 ± 0.62 |
| E136C | 1.22 ± 0.3 |
| P422R | 0.868 ± 0.23 |

| Variant | AIRE transcriptional activation functional score |
| --- | --- |
| L49V | 0.492 ± 0.31 |
| L158M | 0.957 ± 0.086 |
| S506Y | 1.42 ± 0.12 |
| A205Y | 0.153 ± 0.56 |
| L106D | 0.107 ± 1.1 |
| L418S | 0.85 ± 0.24 |
| D514W | -0.252 ± 0.11 |
| D514I | -0.186 ± 0.15 |
| D514P | -0.178 ± 0.11 |
| G306C | 0.922 ± 0.068 |
| A193C | 1.39 ± 0.034 |
| V345Y | 1.02 ± 0.18 |
| P252Q | 0.904 ± 0.34 |
| P252S | 1.03 ± 0.18 |
| R79Q | 0.112 ± 0.35 |
| A202I | 0.93 ± 0.25 |
| P289S | 1.3 ± 0.22 |
| Q425P | 1.21 ± 0.11 |
| L93K | -0.329 ± 0.38 |
| P166A | 1.16 ± 0.69 |
| P166Y | 1.19 ± 0.33 |
| P166I | 1.24 ± 0.54 |
| F43S | 0.0986 ± 0.53 |
| A432K | 0.599 ± 0.19 |

| Variant | AIRE transcriptional activation functional score |
| --- | --- |
| A432E | 1.16 ± 0.18 |
| L397S | 0.938 ± 0.3 |
| Q293D | 0.479 ± 0.55 |
| R336K | 1.67 ± 0.098 |
| R336E | 0.646 ± 0.25 |
| R336T | 0.895 ± 0.33 |
| P466I | 1.21 ± 0.15 |
| P466L | 1.1 ± 0.16 |
| A140S | 1.02 ± 0.59 |
| A510P | 1.35 ± 0.16 |
| A510M | 1.37 ± 0.095 |
| A510C | 1.24 ± 0.065 |
| Q212H | 1.68 ± 0.18 |
| L470S | 0.622 ± 0.39 |
| L470A | 1.02 ± 0.089 |
| L470W | 1.38 ± 0.048 |
| L414G | 0.546 ± 0.18 |
| P360T | 0.775 ± 0.21 |
| K501T | 1.04 ± 0.27 |
| E207L | 0.143 ± 0.19 |
| A160E | -0.0286 ± 0.97 |
| L97I | -0.239 ± 0.83 |
| A170Y | 2.08 ± 0.5 |
| G379W | 1.23 ± 0.066 |

| Variant | AIRE transcriptional activation functional score |
| --- | --- |
| Q534F | 0.205 ± 0.19 |
| P282K | 1.2 ± 0.063 |
| D526F | 0.421 ± 0.054 |
| S156D | 0.928 ± 0.48 |
| S220E | 1.14 ± 0.046 |
| S99I | 0.822 ± 0.33 |
| G467R | 1.01 ± 0.36 |
| G467A | 0.947 ± 0.23 |
| I309M | 0.866 ± 0.14 |
| L273E | 0.817 ± 0.051 |
| L128M | 1.32 ± 0.058 |
| L308M | 1.11 ± 0.018 |
| G527K | 0.173 ± 0.081 |
| H454I | -0.0282 ± 0.35 |
| S518W | 0.848 ± 0.04 |
| G251D | 1.2 ± 0.26 |
| M536Y | -0.0719 ± 0.35 |
| M536S | 0.272 ± 0.48 |
| K83P | -0.158 ± 0.87 |
| H458R | 0.586 ± 0.18 |
| G462Q | 1.03 ± 0.042 |
| G462F | 1.26 ± 0.15 |
| L519N | -0.347 ± 0.28 |
| P492Y | 0.427 ± 0.18 |

| Variant | AIRE transcriptional activation functional score |
| --- | --- |
| A19F | 0.0254 ± 0.21 |
| L291R | 0.656 ± 0.47 |
| K243H | 1.02 ± 0.046 |
| K243A | 0.56 ± 0.47 |
| K243N | 1.06 ± 0.12 |
| A493S | 1.29 ± 0.14 |
| E296G | 1.03 ± 0.25 |
| E296M | 1.14 ± 0.098 |
| T334I | 0.977 ± 0.26 |
| K131Q | -0.125 ± 0.077 |
| G477Y | 0.642 ± 0.12 |
| G477F | 1.36 ± 0.11 |
| P367R | 1.06 ± 0.38 |
| R494E | 0.493 ± 0.15 |
| D304I | 0.384 ± 0.081 |
| D304W | 1.21 ± 0.059 |
| E508N | 0.552 ± 0.15 |
| E508Y | 0.92 ± 0.16 |
| Q182F | -0.279 ± 0.19 |
| Q182V | -0.0151 ± 0.32 |
| A500R | 0.915 ± 0.16 |
| W455T | 0.727 ± 0.17 |
| W455Q | 1.09 ± 0.043 |
| P115V | 1.21 ± 0.51 |

| Variant | AIRE transcriptional activation functional score |
| --- | --- |
| L341T | 1.03 ± 0.2 |
| L341I | 1.21 ± 0.14 |
| S169D | 1.22 ± 0.41 |
| V479N | 1.08 ± 0.13 |
| V479M | 1.1 ± 0.13 |
| G469E | 0.672 ± 0.2 |
| G469K | 0.564 ± 0.23 |
| K111E | 0.792 ± 0.35 |
| P350R | 1.18 ± 0.23 |
| L210P | 0.65 ± 0.069 |
| P116E | 0.895 ± 0.69 |
| E307Q | 1 ± 0.19 |
| E307F | 0.273 ± 0.19 |
| C449T | 0.263 ± 0.08 |
| P129Y | 0.0475 ± 0.46 |
| F215D | 0.909 ± 0.29 |
| A121G | 1.4 ± 0.15 |
| L62V | 0.0204 ± 0.24 |
| Q290I | 0.465 ± 0.35 |
| E237Y | 0.617 ± 0.2 |
| T151A | 1.37 ± 0.58 |
| T147I | 1.16 ± 0.47 |
| D503R | 0.543 ± 0.17 |
